Measured values from paper doi:10.1101/2025.11.10.687702.

How the values were obtained:
[1] = target: Rab7A(QL)-6xHis (human) (UniProt P51149); experiment: liposome flotation; purified VPS13C construct with SUVs (84.8% POPC, 10% POPE, 5% DGS-NTA, 0.2% Rhodamine-PE) to which His-tagged Rab7A(QL) or ATG7 was tethered; 1 mM GTP, 2 mM Mg2+, room temperature 20 min; OptiPrep gradient, top fraction on SDS-PAGE
[2] = target: human Rab7A-Q67L with an N-terminal Strep tag (human) (UniProt P51149); experiment: pull-down; Strep-Rab7A(Q67L) and FLAG-tagged VPS13C constructs co-expressed in Expi293F; lysate in buffer A with 1 mM GTP and 2 mM MgCl2 on Strep-Tactin XT resin, 2 h at 4 °C, eluted with 50 mM biotin; SDS-PAGE with Coomassie stain and/or anti-FLAG western blot
Sequence of human Rab7A-Q67L with an N-terminal Strep tag (human) (P51149 whole entry Q67L): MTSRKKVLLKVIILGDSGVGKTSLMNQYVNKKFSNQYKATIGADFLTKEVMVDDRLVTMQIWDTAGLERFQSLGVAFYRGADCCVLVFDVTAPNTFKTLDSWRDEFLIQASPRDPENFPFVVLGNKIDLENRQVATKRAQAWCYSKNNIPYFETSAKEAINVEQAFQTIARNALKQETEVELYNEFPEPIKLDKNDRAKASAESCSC

Sequence of VPS13C lacking the amphipathic helices of the ATG2_C motif, C-terminal 3xFLAG (Q709C8 whole entry): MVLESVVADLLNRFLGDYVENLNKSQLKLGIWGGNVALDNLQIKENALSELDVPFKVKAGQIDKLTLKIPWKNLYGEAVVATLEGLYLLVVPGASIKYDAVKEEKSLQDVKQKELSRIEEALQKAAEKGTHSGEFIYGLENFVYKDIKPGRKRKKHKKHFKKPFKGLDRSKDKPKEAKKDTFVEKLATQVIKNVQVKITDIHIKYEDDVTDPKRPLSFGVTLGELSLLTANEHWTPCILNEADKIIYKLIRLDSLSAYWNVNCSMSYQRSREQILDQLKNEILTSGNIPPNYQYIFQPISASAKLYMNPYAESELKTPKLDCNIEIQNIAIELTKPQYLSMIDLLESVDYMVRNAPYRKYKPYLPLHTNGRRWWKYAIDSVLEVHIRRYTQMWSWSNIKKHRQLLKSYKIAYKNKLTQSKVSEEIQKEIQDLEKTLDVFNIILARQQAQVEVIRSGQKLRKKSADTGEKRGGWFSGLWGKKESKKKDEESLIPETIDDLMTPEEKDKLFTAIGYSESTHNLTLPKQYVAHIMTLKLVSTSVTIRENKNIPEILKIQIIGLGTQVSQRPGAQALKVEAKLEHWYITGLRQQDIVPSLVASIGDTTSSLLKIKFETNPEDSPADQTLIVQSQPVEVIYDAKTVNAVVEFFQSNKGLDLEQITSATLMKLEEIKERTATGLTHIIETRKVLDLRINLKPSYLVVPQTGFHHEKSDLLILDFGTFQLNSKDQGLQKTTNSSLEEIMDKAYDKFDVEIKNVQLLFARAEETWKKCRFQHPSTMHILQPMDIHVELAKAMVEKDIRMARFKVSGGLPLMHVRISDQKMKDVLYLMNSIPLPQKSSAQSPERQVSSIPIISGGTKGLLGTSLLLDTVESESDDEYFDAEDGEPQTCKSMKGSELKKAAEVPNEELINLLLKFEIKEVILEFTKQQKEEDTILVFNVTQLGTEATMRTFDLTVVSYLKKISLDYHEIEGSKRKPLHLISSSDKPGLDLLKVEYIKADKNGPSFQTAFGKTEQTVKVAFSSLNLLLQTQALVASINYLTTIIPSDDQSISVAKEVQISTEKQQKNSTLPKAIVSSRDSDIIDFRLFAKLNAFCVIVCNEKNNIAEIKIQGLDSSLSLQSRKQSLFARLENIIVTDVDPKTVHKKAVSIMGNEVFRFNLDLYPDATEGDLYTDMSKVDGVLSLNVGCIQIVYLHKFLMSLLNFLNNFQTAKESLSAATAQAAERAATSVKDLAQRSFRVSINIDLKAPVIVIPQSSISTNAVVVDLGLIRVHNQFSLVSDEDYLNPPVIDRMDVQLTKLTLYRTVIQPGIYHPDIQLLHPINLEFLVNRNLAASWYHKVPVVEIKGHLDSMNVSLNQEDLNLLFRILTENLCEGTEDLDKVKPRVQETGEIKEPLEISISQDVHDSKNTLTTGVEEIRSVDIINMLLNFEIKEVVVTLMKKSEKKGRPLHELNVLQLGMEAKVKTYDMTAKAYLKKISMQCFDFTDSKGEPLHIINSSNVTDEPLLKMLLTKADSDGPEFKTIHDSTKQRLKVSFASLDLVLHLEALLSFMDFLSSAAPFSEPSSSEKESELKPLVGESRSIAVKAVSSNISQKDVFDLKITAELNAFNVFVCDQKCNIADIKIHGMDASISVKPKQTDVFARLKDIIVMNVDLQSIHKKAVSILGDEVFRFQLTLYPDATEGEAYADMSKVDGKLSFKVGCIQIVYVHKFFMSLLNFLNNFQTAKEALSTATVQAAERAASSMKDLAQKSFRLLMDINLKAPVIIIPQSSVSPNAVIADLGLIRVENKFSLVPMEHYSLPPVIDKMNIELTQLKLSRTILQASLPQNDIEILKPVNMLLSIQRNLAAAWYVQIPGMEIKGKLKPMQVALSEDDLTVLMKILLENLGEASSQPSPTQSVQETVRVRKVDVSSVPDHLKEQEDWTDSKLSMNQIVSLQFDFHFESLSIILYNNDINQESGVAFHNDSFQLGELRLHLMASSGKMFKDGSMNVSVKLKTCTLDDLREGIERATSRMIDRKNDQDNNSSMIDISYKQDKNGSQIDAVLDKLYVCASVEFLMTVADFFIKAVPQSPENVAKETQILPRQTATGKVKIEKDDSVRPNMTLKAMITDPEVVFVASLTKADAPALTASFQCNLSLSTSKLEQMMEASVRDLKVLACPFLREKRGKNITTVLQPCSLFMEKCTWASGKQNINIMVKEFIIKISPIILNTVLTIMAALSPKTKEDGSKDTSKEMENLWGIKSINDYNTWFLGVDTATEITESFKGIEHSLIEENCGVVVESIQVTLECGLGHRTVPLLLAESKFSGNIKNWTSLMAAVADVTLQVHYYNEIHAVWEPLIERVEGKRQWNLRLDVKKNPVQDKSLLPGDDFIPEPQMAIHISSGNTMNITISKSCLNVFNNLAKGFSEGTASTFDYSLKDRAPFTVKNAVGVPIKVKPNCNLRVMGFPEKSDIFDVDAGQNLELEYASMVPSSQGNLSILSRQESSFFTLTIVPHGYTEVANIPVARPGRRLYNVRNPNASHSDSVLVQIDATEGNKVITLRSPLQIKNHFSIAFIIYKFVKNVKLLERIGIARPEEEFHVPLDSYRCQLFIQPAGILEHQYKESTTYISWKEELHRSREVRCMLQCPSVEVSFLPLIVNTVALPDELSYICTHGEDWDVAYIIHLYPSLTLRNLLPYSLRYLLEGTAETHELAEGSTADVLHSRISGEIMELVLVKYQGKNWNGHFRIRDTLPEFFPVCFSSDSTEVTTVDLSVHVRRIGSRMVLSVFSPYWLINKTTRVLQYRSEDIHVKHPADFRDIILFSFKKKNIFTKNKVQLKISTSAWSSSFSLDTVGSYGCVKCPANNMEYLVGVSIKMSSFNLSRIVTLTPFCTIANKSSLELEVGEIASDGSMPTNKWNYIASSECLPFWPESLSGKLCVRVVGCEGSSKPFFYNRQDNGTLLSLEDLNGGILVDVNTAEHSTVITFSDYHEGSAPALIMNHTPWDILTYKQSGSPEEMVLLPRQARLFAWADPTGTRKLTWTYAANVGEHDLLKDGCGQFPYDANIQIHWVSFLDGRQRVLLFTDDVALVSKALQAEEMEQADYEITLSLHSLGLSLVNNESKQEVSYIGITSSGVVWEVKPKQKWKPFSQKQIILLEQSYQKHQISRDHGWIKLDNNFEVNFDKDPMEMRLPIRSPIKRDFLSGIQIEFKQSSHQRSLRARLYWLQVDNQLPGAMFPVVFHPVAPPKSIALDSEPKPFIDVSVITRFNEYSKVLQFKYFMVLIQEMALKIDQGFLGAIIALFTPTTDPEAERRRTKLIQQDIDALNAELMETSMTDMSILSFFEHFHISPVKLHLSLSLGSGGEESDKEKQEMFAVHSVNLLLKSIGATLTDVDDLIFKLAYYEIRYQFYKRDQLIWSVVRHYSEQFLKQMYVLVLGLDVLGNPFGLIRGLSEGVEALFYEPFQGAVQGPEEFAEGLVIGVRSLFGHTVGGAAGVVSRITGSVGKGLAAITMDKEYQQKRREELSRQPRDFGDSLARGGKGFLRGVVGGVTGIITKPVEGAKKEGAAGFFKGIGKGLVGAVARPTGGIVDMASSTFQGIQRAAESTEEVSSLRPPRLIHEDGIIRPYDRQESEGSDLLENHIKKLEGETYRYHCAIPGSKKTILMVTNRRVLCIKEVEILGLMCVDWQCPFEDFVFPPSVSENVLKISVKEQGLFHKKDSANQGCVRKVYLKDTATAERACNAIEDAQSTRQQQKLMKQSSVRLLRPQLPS
Sequence of Rab7A(QL)-6xHis (human) (P51149 whole entry Q67L): as the sequence (P51149 whole entry Q67L) above

Substance | percent co-floated with SUVs bearing His-tagged Rab7A [1] [%] | fraction of total overexpressed VPS13C retained by Rab7(Q67L) [2] [%]
VPS13C lacking the amphipathic helices of the ATG2_C motif, C-terminal 3xFLAG (from UniProt Q709C8 1-3753) (natural protein) | > 80 | –
full-length human VPS13C with a C-terminal 3xFLAG tag, Q709C8 1-3753 | – | 5
